Measured values taken from patent US20250339531A1, “DUX4 POLYPEPTIDES AND NUCLEIC ACIDS FOR TREATING INFLAMMATORY AND AUTOIMMUNE CONDITIONS” (Fred Hutchinson Cancer Center, priority 2021, published 2025).

System: proteins that co-immunoprecipitated with DUX4-CTD constructs expressed in MB135 myoblasts
Test: LC-MS of proteins co-immunoprecipitated with DUX4-CTD (Table 1) and western validation
Format: binding, human
Set-up: key to 4. mL1dL2 + Dox + IFNG / 4. + IFNG mix / 4. longCTD + Dox + IFNG / 3. + IFNg + Dox longCTD / 3. + Dox longCTD / 3. + IFNG longCTD: peptide-spectrum matches (PSMs) per protein
Conditions: for 4. longCTD + Dox + IFNG: LC-MS counts of the listed protein co-immunoprecipitated with DUX4-CTD bait longCTD, experiment 4, Dox + IFNG; for 3. + Dox longCTD / 3. + IFNg + Dox longCTD: bait longCTD; for 3. + Dox longCTD: experiment 3, Dox only; for 3. + IFNg + Dox longCTD: experiment 3, IFNg + Dox; for SUM of PSMS: sum over all samples
Summary of the method: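 Two independent experiments compared uninduced, doxycycline and doxycycline+IFNG MB135iDUX4-CTD (plus MB135iDUX4mL1dL2) myoblasts. Anti-FLAG pulldowns (3 h, 4 °C) were eluted in LDS buffer for western validation or with FLAG peptide for trypsin digestion and Orbitrap LC-MS; hits needed ≥2 PSMs in both experiments, ranked by total PSMs.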

Row | Molecule | 4. longCTD + Dox + IFNG | 3. + Dox longCTD | 3. + IFNg + Dox longCTD | SUM of PSMS
1 | Q63ZY3 (protein, UniProt Q63ZY3 1-851, looked up, full-length) MAQVLHVPAPFPGTPGPASPPAFPAKDPDPPYSVETPYGYRLDLDFLKYVDDIEKGHTLRRVAVQRRPRLSSLPRGPGSWWTSTESLCSNASGDSRHSAYSYCGRGFYPQYGALETRGGFNPRVERTLLDARRRLEDQAATPTGLGSLTPSAAGSTASLVGVGLPPPTPRSSGLSTPVPPSAGHLAHVREQMAGALRKLRQLEEQVKLIPVLQVKLSVLQEEKRQLTVQLKSQKFLGHPTAGRGRSELCLDLPDPPEDPVALETRSVGTWVRERDLGMPDGEAALAAKVAVLETQLKKALQELQAAQARQADPQPQAWPPPDSPVRVDTVRVVEGPREVEVVASTAAGAPAQRAQSLEPYGTGLRALAMPGRPESPPVFRSQEVVETMCPVPAAATSNVHMVKKISITERSCDGAAGLPEVPAESSSSPPGSEVASLTQPEKSTGRVPTQEPTHREPTRQAASQESEEAGGTGGPPAGVRSIMKRKEEVADPTAHRRSLQFVGVNGGYESSSEDSSTAENISDNDSTENEAPEPRERVPSVAEAPQLRPAGTAAAKTSRQECQLSRESQHIPTAEGASGSNTEEEIRMELSPDLISACLALEKYLDNPNALTERELKVAYTTVLQEWLRLACRSDAHPELVRRHLVTFRAMSARLLDYVVNIADSNGNTALHYSVSHANFPVVQQLLDSGVCKVDKQNRAGYSPIMLTALATLKTQDDIETVLQLFRLGNINAKASQAGQTALMLAVSHGRVDVVKALLACEADVNVQDDDGSTALMCACEHGHKEIAGLLLAVPSCDISLTDRDGSTALMVALDAGQSEIASMLYSRMNIKCSFAPMSDDESPTSSSAEE | 4 | 3 | 3 | 11
2 | P55209 (protein, UniProt P55209 1-391, looked up, full-length) MADIDNKEQSELDQDLDDVEEVEEEETGEETKLKARQLTVQMMQNPQILAALQERLDGLVETPTGYIESLPRVVKRRVNALKNLQVKCAQIEAKFYEEVHDLERKYAVLYQPLFDKRFEIINAIYEPTEEECEWKPDEEDEISEELKEKAKIEDEKKDEEKEDPKGIPEFWLTVFKNVDLLSDMVQEHDEPILKHLKDIKVKFSDAGQPMSFVLEFHFEPNEYFTNEVLTKTYRMRSEPDDSDPFSFDGPEIMGCTGCQIDWKKGKNVTLKTIKKKQKHKGRGTVRTVTKTVSNDSFFNFFAPPEVPESGDLDDDAEAILAADFEIGHFLRERIIPRSVLYFTGEAIEDDDDDYDEEGEEADEEGEEEGDEENDPDYDPKKDQNPAECKQQ | 3 |  | 5 | 10
3 | Q15233 (protein, UniProt Q15233 1-471, looked up, full-length) MQSNKTFNLEKQNHTPRKHHQHHHQQQHHQQQQQQPPPPPIPANGQQASSQNEGLTIDLKNFRKPGEKTFTQRSRLFVGNLPPDITEEEMRKLFEKYGKAGEVFIHKDKGFGFIRLETRTLAEIAKVELDNMPLRGKQLRVRFACHSASLTVRNLPQYVSNELLEEAFSVFGQVERAVVIVDDRGRPSGKGIVEFSGKPAARKALDRCSEGSFLLTTFPRPVTVEPMDQLDDEEGLPEKLVIKNQQFHKEREQPPRFAQPGSFEYEYAMRWKALIEMEKQQQDQVDRNIKEAREKLEMEMEAARHEHQVMLMRQDLMRRQEELRRMEELHNQEVQKRKQLELRQEEERRRREEEMRRQQEEMMRRQQEGFKGTFPDAREQEIRMGQMAMGGAMGINNRGAMPPAPVPAGTPAPPGPATMMPDGTLGLTPPTTERFGQAATMEGIGAIGGTPPAFNRAAPGAEFAPNKRRRY |  | 1 | 8 | 10
4 | Q8NC51 (protein, UniProt Q8NC51 1-408, looked up, full-length) MPGHLQEGFGCVVTNRFDQLFDDESDPFEVLKAAENKKKEAGGGGVGGPGAKSAAQAAAQTNSNAAGKQLRKESQKDRKNPLPPSVGVVDKKEETQPPVALKKEGIRRVGRRPDQQLQGEGKIIDRRPERRPPRERRFEKPLEEKGEGGEFSVDRPIIDRPIRGRGGLGRGRGGRGRGMGRGDGFDSRGKREFDRHSGSDRSSFSHYSGLKHEDKRGGSGSHNWGTVKDELTESPKYIQKQISYNYSDLDQSNVTEETPEGEEHHPVADTENKENEVEEVKEEGPKEMTLDEWKAIQNKDRAKVEFNIRKPNEGADGQWKKGFVLHKSKSEEAHAEDSVMDHHFRKPANDITSQLEINFGDLGRPGRGGRGGRGGRGRGGRPNRGSRTDKSSASAPDVDDPEAFPALA | 1 | 2 | 3 | 6
5 | Q9UN86 (protein, UniProt Q9UN86 1-482, looked up, full-length) MVMEKPSPLLVGREFVRQYYTLLNKAPEYLHRFYGRNSSYVHGGVDASGKPQEAVYGQNDIHHKVLSLNFSECHTKIRHVDAHATLSDGVVVQVMGLLSNSGQPERKFMQTFVLAPEGSVPNKFYVHNDMFRYEDEVFGDSEPELDEESEDEVEEEQEERQPSPEPVQENANSGYYEAHPVTNGIEEPLEESSHEPEPEPESETKTEELKPQVEEKNLEELEEKSTTPPPAEPVSLPQEPPKAFSWASVTSKNLPPSGTVSSSGIPPHVKAPVSQPRVEAKPEVQSQPPRVREQRPRERPGFPPRGPRPGRGDMEQNDSDNRRIIRYPDSHQLFVGNLPHDIDENELKEFFMSFGNVVELRINTKGVGGKLPNFGFVVFDDSEPVQRILIAKPIMFRGEVRLNVEEKKTRAARERETRGGGDDRRDIRRNDRGPGGPRGIVGGGMMRDRDGRGPPPRGGMAQKLGSGRGTGQMEGRFTGQRR | 1 | 1 | 3 | 6
6 | P26196 (protein, UniProt P26196 1-483, looked up, full-length) MSTARTENPVIMGLSSQNGQLRGPVKPTGGPGGGGTQTQQQMNQLKNTNTINNGTQQQAQSMTTTIKPGDDWKKTLKLPPKDLRIKTSDVTSTKGNEFEDYCLKRELLMGIFEMGWEKPSPIQEESIPIALSGRDILARAKNGTGKSGAYLIPLLERLDLKKDNIQAMVIVPTRELALQVSQICIQVSKHMGGAKVMATTGGTNLRDDIMRLDDTVHVVIATPGRILDLIKKGVAKVDHVQMIVLDEADKLLSQDFVQIMEDIILTLPKNRQILLYSATFPLSVQKFMNSHLQKPYEINLMEELTLKGVTQYYAYVTERQKVHCLNTLFSRLQINQSIIFCNSSQRVELLAKKISQLGYSCFYIHAKMRQEHRNRVFHDFRNGLCRNLVCTDLFTRGIDIQAVNVVINFDFPKLAETYLHRIGRSGRFGHLGLAINLITYDDRFNLKSIEEQLGTEIKPIPSNIDKSLYVAEYHSEPVEDEKP | 1 | 2 | 3 | 6
7 | P52597 (protein, UniProt P52597 1-415, looked up, full-length) MMLGPEGGEGFVVKLRGLPWSCSVEDVQNFLSDCTIHDGAAGVHFIYTREGRQSGEAFVELGSEDDVKMALKKDRESMGHRYIEVFKSHRTEMDWVLKHSGPNSADSANDGFVRLRGLPFGCTKEEIVQFFSGLEIVPNGITLPVDPEGKITGEAFVQFASQELAEKALGKHKERIGHRYIEVFKSSQEEVRSYSDPPLKFMSVQRPGPYDRPGTARRYIGIVKQAGLERMRPGAYSTGYGGYEEYSGLSDGYGFTTDLFGRDLSYCLSGMYDHRYGDSEFTVQSTTGHCVHMRGLPYKATENDIYNFFSPLNPVRVHIEIGPDGRVTGEADVEFATHEEAVAAMSKDRANMQHRYIELFLNSTTGASNGAYSSQVMQGMGVSAAQATYSGLESQSVSGCYGAGYSGQNSMGGYD | 1 | 1 | 4 | 6
8 | O94919 (protein, UniProt O94919 1-500, looked up, full-length) MGTARWLALGSLFALAGLLEGRLVGEEEAGFGECDKFFYAGTPPAGLAADSHVKICQRAEGAERFATLYSTRDRIPVYSAFRAPRPAPGGAEQRWLVEPQIDDPNSNLEEAINEAEAITSVNSLGSKQALNTDYLDSDYQRGQLYPFSLSSDVQVATFTLTNSAPMTQSFQERWYVNLHSLMDRALTPQCGSGEDLYILTGTVPSDYRVKDKVAVPEFVWLAACCAVPGGGWAMGFVKHTRDSDIIEDVMVKDLQKLLPFNPQLFQNNCGETEQDTEKMKKILEVVNQIQDEERMVQSQKSSSPLSSTRSKRSTLLPPEASEGSSSFLGKLMGFIATPFIKLFQLIYYLVVAILKNIVYFLWCVTKQVINGIESCLYRLGSATISYFMAIGEELVSIPWKVLKVVAKVIRALLRILCCLLKAICRVLSIPVRVLVDVATFPVYTMGAIPIVCKDIALGLGGTVSLLFDTAFGTLGGLFQVVFSVCKRIGYKVTFDNSGEL | 2 |  | 1 | 5
9 | P29508 (protein, UniProt P29508 1-390, looked up, full-length) MNSLSEANTKFMFDLFQQFRKSKENNIFYSPISITSALGMVLLGAKDNTAQQIKKVLHFDQVTENTTGKAATYHVDRSGNVHHQFQKLLTEFNKSTDAYELKIANKLFGEKTYLFLQEYLDAIKKFYQTSVESVDFANAPEESRKKINSWVESQTNEKIKNLIPEGNIGSNTTLVLVNAIYFKGQWEKKFNKEDTKEEKFWPNKNTYKSIQMMRQYTSFHFASLEDVQAKVLEIPYKGKDLSMIVLLPNEIDGLQKLEEKLTAEKLMEWTSLQNMRETRVDLHLPRFKVEESYDLKDTLRTMGMVDIFNGDADLSGMTGSRGLVLSGVLHKAFVEVTEEGAEAAAATAVVGFGSSPTSTNEEFHCNHPFLFFIRQNKTNSILFYGRFSSP |  |  | 2 | 4
10 | Q86YD1 (protein, UniProt Q86YD1 1-416, looked up, full-length) MVRPRRAPYRSGAGGPLGGRGRPPRPLVVRAVRSRSWPASPRGPQPPRIRARSAPPMEGARVFGALGPIGPSSPGLTLGGLAVSEHRLSNKLLAWSGVLEWQEKRRPYSDSTAKLKRTLPCQAYVNQGENLETDQWPQKLIMQLIPQQLLTTLGPLFRNSQLAQFHFTNRDCDSLKGLCRIMGNGFAGCMLFPHISPCEVRVLMLLYSSKKKIFMGLIPYDQSGFVSAIRQVITTRKQAVGPGGVNSGPVQIVNNKFLAWSGVMEWQEPRPEPNSRSKRWLPSHVYVNQGEILRTEQWPRKLYMQLIPQQLLTTLVPLFRNSRLVQFHFTKDLETLKSLCRIMDNGFAGCVHFSYKASCEIRVLMLLYSSEKKIFIGLIPHDQGNFVNGIRRVIANQQQVLQRNLEQEQQQRGMGG | 2 | 2 |  | 4
